Assay results published in US20200190209A1.

Target: recombinant human CD38 his tagged (extracellular domain) (human) (UniProt P28907)
Test: ForteBio BLI

Kd: 9 nM
Substance: IB4 (reference monoclonal agonistic mouse anti-human CD38 antibody)
